Laboratory results from the supplement of paper PMC5998384.

Assays:
HeLa Kyoto [1] = assay: solubility in G1/S (NP-40 vs SDS abundance) (log2 ratio); higher = more soluble; settings: cell cycle stage: G1/S
HeLa Kyoto [2] = assay: thermal stability score vs G1/S (z-score of summed log2 fold changes over temperatures); higher = more thermally stable than in G1/S
HeLa Kyoto [3] = assay: solubility change mitosis vs G1/S (difference of NP-40 vs SDS log2 ratios) (log2 ratio difference); higher = more soluble in mitosis
HeLa Kyoto [4] = assay: melting temperature (median over replicates), in situ; higher = more thermally stable
[5] = cell cycle stage: early G1 (4.5 h after nocodazole release)
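Wherever melting temperature (median over replicates), in situ is given: HeLa Kyoto cells synchronized by double thymidine or nocodazole block, proteins quantified by TMT10plex mass spectrometry, three independent biological replicates.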
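Wherever solubility change mitosis vs G1/S (difference of NP-40 vs SDS log2 ratios) is given: synchronized HeLa Kyoto cells (double thymidine block for G1/S, nocodazole release for mitosis), protein amounts in NP-40 versus SDS lysates quantified by mass spectrometry, three biological replicates.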
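Wherever solubility in G1/S (NP-40 vs SDS abundance) is given: HeLa Kyoto cells arrested at G1/S by double thymidine block, proteins quantified by TMT10plex mass spectrometry in mild NP-40 versus SDS extracts, three biological replicates.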
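Wherever thermal stability score vs G1/S (z-score of summed log2 fold changes over temperatures) is given: synchronized HeLa Kyoto cells, proteins quantified by TMT10plex mass spectrometry, three biological replicates, mitosis taken 0.5 h after nocodazole release, G1/S directly after double thymidine block.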

For “MEIPGSLCKKVKLSNNAQNWGMQRATNVTYQAHHVSRNKRGQVVGTRGGFRGCTVWLTGLSGAGKTTVSMALEEYLVCHGIPCYTLDGDNIRQGLNKNLGFSPEDREENVRRIAEVAKLFADAGLVCITSFISPYTQDRNNARQIHEGASLPFFEVFVDAPLHVCEQRDVKGLYKKARAGEIKGFTGIDSEYEKPEAPELVLKTDSCDVNDCVQQVVELLQERDIVPVDASYEVKELYVPENKLHLAKTDAETLPALKINKVDMQWVQVLAEGWATPLNGFMREREYLQCLHFDCLLDGGVINLSVPIVLTATHEDKERLDGCTAFALMYEGRRVAILRNPEFFEHRKEERCARQWGTTCKNHPYIKMVMEQGDWLIGGDLQVLDRVYWNDGLDQYRLTPTELKQKFKDMNADAVFAFQLRNPVHNGHALLMQDTHKQLLERGYRRPVLLLHPLGGWTKDDDVPLMWRMKQHAAVLEEGVLNPETTVVAIFPSPMMYAGPTEVQWHCRARMVAGANFYIVGRDPAGMPHPETGKDLYEPSHGAKVLTMAPGLITLEIVPFRVAAYNKKKKRMDYYDSEHHEDFEFISGTRMRKLAREGQKPPEGFMAPKAWTVLTEYYKSLEKA [PAPSS1]”, the “solubility in G1/S (log2)” value (HeLa Kyoto [1]) was 0.104, the thermal stability score (HeLa Kyoto [2]; [5]) was 0.0766 and the thermal stability score (HeLa Kyoto [2]; cell cycle stage: mitosis) was -0.551. The “solubility change mitosis (log2)” value (HeLa Kyoto [3]) was -0.174, the melting temperature (HeLa Kyoto [4]; cell cycle stage: G1/S) was 53.6 °C and the melting temperature (HeLa Kyoto [4]; cell cycle stage: mitosis) was 53.8 °C.

In the case of “MAEQATKSVLFVCLGNICRSPIAEAVFRKLVTDQNISENWRVDSAATSGYEIGNPPDYRGQSCMKRHGIPMSHVARQITKEDFATFDYILCMDESNLRDLNRKSNQVKTCKAKIELLGSYDPQKQLIIEDPYYGNDSDFETVYQQCVRCCRAFLEKAH [ACP1]”, the “solubility in G1/S (log2)” value (HeLa Kyoto [1]) is reported as 0.178, the thermal stability score (HeLa Kyoto [2]; [5]) is reported as -0.241 and the thermal stability score (HeLa Kyoto [2]; cell cycle stage: mitosis) is reported as -0.21. The “solubility change mitosis (log2)” value (HeLa Kyoto [3]) was -0.0468, the melting temperature (HeLa Kyoto [4]; cell cycle stage: G1/S) was 50.2 °C and the melting temperature (HeLa Kyoto [4]; cell cycle stage: mitosis) was 51 °C.

In the case of “MNKPITPSTYVRCLNVGLIRKLSDFIDPQEGWKKLAVAIKKPSGDDRYNQFHIRRFEALLQTGKSPTSELLFDWGTTNCTVGDLVDLLIQNEFFAPASLLLPDAVPKTANTLPSKEAITVQQKQMPFCDKDRTLMTPVQNLEQSYMPPDSSSPENKSLEVSDTRFHSFSFYELKNVTNNFDERPISVGGNKMGEGGFGVVYKGYVNNTTVAVKKLAAMVDITTEELKQQFDQEIKVMAKCQHENLVELLGFSSDGDDLCLVYVYMPNGSLLDRLSCLDGTPPLSWHMRCKIAQGAANGINFLHENHHIHRDIKSANILLDEAFTAKISDFGLARASEKFAQTVMTSRIVGTTAYMAPEALRGEITPKSDIYSFGVVLLEIITGLPAVDEHREPQLLLDIKEEIEDEEKTIEDYIDKKMNDADSTSVEAMYSVASQCLHEKKNKRPDIKKVQQLLQEMTAS [IRAK4]”, the “solubility in G1/S (log2)” value (HeLa Kyoto [1]) is reported as 0.372, the thermal stability score (HeLa Kyoto [2]; [5]) is reported as 0.383 and the thermal stability score (HeLa Kyoto [2]; cell cycle stage: mitosis) is reported as 1.05. The “solubility change mitosis (log2)” value (HeLa Kyoto [3]) was -0.193, the melting temperature (HeLa Kyoto [4]; cell cycle stage: G1/S) was 50.6 °C and the melting temperature (HeLa Kyoto [4]; cell cycle stage: mitosis) was 49.9 °C.

In the case of “MNLEKLSKPELLTLFSILEGELEARDLVIEALKAQHRDTFIEERYGKYNISDPLMALQRDFETLKEKNDGEKQPVCTNPLSILKVVMKQCKNMQERMLSQLAAAESRHRKVILDLEEERQRHAQDTAEGDDVTYMLEKERERLTQQLEFEKSQVKKFEKEQKKLSSQLEEERSRHKQLSSMLVLECKKATNKAAEEGQKAGELSLKLEKEKSRVSKLEEELAAERKRGLQTEAQVEKQLSEFDIEREQLRAKLNREENRTKTLKEEMESLKKIVKDLEASHQHSSPNEQLKKPVTVSKGTATEPLMLMSVFCQTESFPAERTHGSNIAKMTNTGLPGPATPAYSYAKTNGHCDPEIQTTRELTAGNNVENQVPPREKSVALAQEKPVENGGCPVGIETPVPMPSPLSSSGSSLSPSSTASSSLTSSPCSSPVLTKRLLGSSASSPGYQSSYQVGINQRFHAARHKFQSQADQDQQASGLQSPPSRDLSPTLIDNSAAKQLARNTVTQVLSRFTSQQGPIKPVSPNSSPFGTDYRNLANTANPRGDTSHSPTPGKVSSPLSPLSPGIKSPTIPRAERGNPPPIPPKKPGLTPSPSATTPLTKTHSQAASLTTAEDLASSCSSNTVVANGKDVELLLPTSS [CTTNBP2NL]”, the “solubility in G1/S (log2)” value (HeLa Kyoto [1]) is reported as 0.435, the thermal stability score (HeLa Kyoto [2]; [5]) is reported as -2.02 and the thermal stability score (HeLa Kyoto [2]; cell cycle stage: mitosis) is reported as -1.85. The “solubility change mitosis (log2)” value (HeLa Kyoto [3]) was -0.363, the melting temperature (HeLa Kyoto [4]; cell cycle stage: G1/S) was 49.9 °C and the melting temperature (HeLa Kyoto [4]; cell cycle stage: mitosis) was 50.3 °C.

In the case of “MQTFLKGKRVGYWLSEKKIKKLNFQAFAELCRKRGMEVVQLNLSRPIEEQGPLDVIIHKLTDVILEADQNDSQSLELVHRFQEYIDAHPETIVLDPLPAIRTLLDRSKSYELIRKIEAYMEDDRICSPPFMELTSLCGDDTMRLLEKNGLTFPFICKTRVAHGTNSHEMAIVFNQEGLNAIQPPCVVQNFINHNAVLYKVFVVGESYTVVQRPSLKNFSAGTSDRESIFFNSHNVSKPESSSVLTELDKIEGVFERPSDEVIRELSRALRQALGVSLFGIDIIINNQTGQHAVIDINAFPGYEGVSEFFTDLLNHIATVLQGQSTAMAATGDVALLRHSKLLAEPAGGLVGERTCSASPGCCGSMMGQDAPWKAEADAGGTAKLPHQRLGCNAGVSPSFQQHCVASLATKASSQ [ITPK1]”, the “solubility in G1/S (log2)” value (HeLa Kyoto [1]) is reported as 0.0668, the thermal stability score (HeLa Kyoto [2]; [5]) is reported as 0.291 and the thermal stability score (HeLa Kyoto [2]; cell cycle stage: mitosis) is reported as -1.14. For the same sequence, the “solubility change mitosis (log2)” value (HeLa Kyoto [3]) was -0.011, the melting temperature (HeLa Kyoto [4]; cell cycle stage: G1/S) was 51.9 °C and the melting temperature (HeLa Kyoto [4]; cell cycle stage: mitosis) was 51.3 °C.
